# Reference: patent US20230212549A1 (3B PHARMACEUTICALS, published 2023)
# Numbered stars: 1 amine (or outer) side, 2 acyl side, 3 side chain; on linkers, the order of the positions; unused ones are H or OH. Bridge positions count the residues as written; N and C are the ends. Square brackets hold non-standard residues; d marks the D form. Primed or numbered codes have the meaning given here. * marks the point of attachment. Ttds″ = 1,13-diamino-4,7,10-trioxatridecan-succinamic acid spacer, O=C(CCC(=O)[*:2])NCCCOCCOCCOCCCN[*:1]; Ttds = 1,13-diamino-4,7,10-trioxatridecan-succinamic acid, O=C(CCC(=O)[*:2])NCCCOCCOCCOCCCN[*:1]; N4Ac = 6-Carboxy-1,4,8,11-tetraazaundecane, an N4-chelator, NCCNCC(CNCCN)C(=O)*; mXylylene = c1cc(C[*:1])cc(C[*:2])c1; Pentanesulfonyl = CCCCCS(=O)(=O)*; Nle = CCCC[C@H](N)C(=O)O; Hexanoyl = CCCCCC(=O)*; Ahx = NCCCCCC(=O)O; Sar = CNCC(=O)O
# B1: Hex-[Cys(tMeBn(InDOTA-AET))-Nmg-Pro-Thr-Gln-Phe-Cys]-OH (peptide)
# peptide: Hexanoyl-C[Sar]PTQFC-OH
# modifications: linker 1-7 via tMeBn(InDOTA-AET); not fully specified (residue 1); printed as Hex--[C(tMeBn(InDOTA--AET))--Nmg-PTQFC]-OH; also: DOTA complexing indium
# notes: also called 3BP-3716
# B2: Hex-[Cys(tMeBn(DOTA-PP))-Nmg-Pro-Thr-Gln-Phe-Cys]-OH (peptide)
# peptide: Hexanoyl-C[Sar]PTQFC-OH
# modifications: bridge 1-7; not fully specified (residue 1, bridges); printed as Hex-[Cys(tMeBn(DOTA-PP))-Nmg-Pro-Thr-Gln-Phe-Cys]-OH
# notes: also called 3BP-3771
# B3: H-Ahx-Ttds-Nle-[Cys-(3MeBn)-Pro-Pro-Thr-Gln-Phe-Cys]-Asp-NH2 (peptide)
# peptide: H-[Ahx][Ttds][Nle]CPPTQFCD-NH2
# modifications: linker 4-10 via mXylylene
# SMILES: CCCC[C@H](NC(=O)CCC(=O)NCCCOCCOCCOCCCNC(=O)CCCCCN)C(=O)N[C@H]1CSCc2cccc(c2)CSC[C@@H](C(=O)N[C@@H](CC(=O)O)C(N)=O)NC(=O)[C@H](Cc2ccccc2)NC(=O)[C@H](CCC(N)=O)NC(=O)[C@H]([C@@H](C)O)NC(=O)[C@@H]2CCCN2C(=O)[C@@H]2CCCN2C1=O
# notes: also called 3BP-3980
# B4: N4Ac-Ttds-Nle-[Cys-(3MeBn)-Pro-Pro-Thr-Glu-Phe-Cys]-OH (peptide)
# peptide: N4Ac-[Ttds″][Nle]CPPTEFC-OH
# modifications: linker 3-9 via mXylylene
# SMILES: CCCC[C@H](NC(=O)CCC(=O)NCCCOCCOCCOCCCNC(=O)C(CNCCN)CNCCN)C(=O)N[C@H]1CSCc2cccc(c2)CSC[C@@H](C(=O)O)NC(=O)[C@H](Cc2ccccc2)NC(=O)[C@H](CCC(=O)O)NC(=O)[C@H]([C@@H](C)O)NC(=O)[C@@H]2CCCN2C(=O)[C@@H]2CCCN2C1=O
# notes: also called 3BP-4161
# Assays:
# [1] = target: T1, Recombinant human FAP (R&D systems, #3715-SE) (human, UniProt Q12884 26-760); test: cell-based or functional assay
# [2] = target: T2, human fibroblast activation protein (FAP) on WI-38 fibroblasts (human, UniProt Q12884 1-760); test: competitive FACS, WI-38 cells, Cy5-labeled peptide as competitor
# T2 construct: FAP-expressing human WI-38 fibroblasts (ECACC)
# [3] = target: T1, Recombinant human FAP (R&D systems, …); test: SPR (Biacore T200), FAP captured on anti-FAP antibody, single cycle kinetics
Binder,pIC50 Category (Activity) [1],pIC50 Category (FACS) [2],pKD Category [3]
"Pentanesulfonyl-CPPTQFCD-NH2 (linker 1-7 via tMeBn(InDOTA-PP); also: In complex of DOTA (InDOTA), also called 3BP-3717) [Pentyl-SO2-[Cys(tMeBn(InDOTA-PP))-Pro-Pro-Thr-Gln-Phe-Cys]-Asp-NH2]",> 8 pIC50,> 8 pIC50,> 8 pKD
"Hexanoyl-CPPTQFCG-OH (linker 1-7 via tMeBn(InDOTA-AET); also: In complex (InDOTA), also called 3BP-3714) [Hex-[Cys(tMeBn(InDOTA-AET))-Pro-Pro-Thr-Gln-Phe-Cys]-Gly-OH]",> 8 pIC50,> 8 pIC50,> 8 pKD
B1,> 8 pIC50,> 8 pIC50,> 8 pKD
B2,> 8 pIC50,> 8 pIC50,
"Hexanoyl-CPPTQFCD-NH2 (linker 1-7 via tMeBn(H-O2Oc-PP), also called 3BP-3967) [Hex-[Cys-(tMeBn(H-O2Oc-PP))-Pro-Pro-Thr-Gln-Phe-Cys]-Asp-NH2]",> 8 pIC50,> 8 pIC50,
B3,> 8 pIC50,> 8 pIC50,
"Hexanoyl-CPPTQFCD-NH2 (linker 1-7 via tMeBn(H-O2Oc-AET), also called 3BP-4003) [Hex-[Cys-(tMeBn(H-O2Oc-AET))-Pro-Pro-Thr-Gln-Phe-Cys]-Asp-NH2]",> 8 pIC50,> 8 pIC50,
B4,> 8 pIC50,> 8 pIC50,> 8 pKD
